Experiments:
[1] = molecular target: T1, FcγRIIb extracellular domain with C-terminal His tag (human, UniProt P31994 43-217); assay: SPR (Biacore), antibody captured on antigen-peptide chip, FcgRIIb as analyte; binding relative to GpH7-B3/GpL16-k0 (HoCon Ab) = 100
T1 construct: extracellular domain; Expressed in FreeStyle293 cells; used as analyte in Biacore; also called FcgRIIb; 2b; not shown: C-terminal His tag
T1 sequence (looked up): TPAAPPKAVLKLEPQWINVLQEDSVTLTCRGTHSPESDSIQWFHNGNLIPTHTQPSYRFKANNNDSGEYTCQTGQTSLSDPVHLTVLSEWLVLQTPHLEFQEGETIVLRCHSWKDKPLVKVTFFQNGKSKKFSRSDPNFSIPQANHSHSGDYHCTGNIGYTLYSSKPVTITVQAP

[2] = molecular target: T1, FcγRIIb extracellular domain with …; assay: SPR (Biacore), antibody captured on antigen-peptide chip, FcgRIIb as analyte; binding relative to GpH7-A5/GpH7-B3/GpL16-k0 (HeCon Ab) = 100

Binder	Ho/Con_2b [1]	He/Con_2b [2]
GpH7-B3 variant S267_02A/GpL16-k0 (Ho Ab) (antibody, human IgG1, kappa, Substitution in both H chains; position in EU numbering; also called S267A homodimerized antibody) heavy: not shown light: DIVMTQSPLSLPVTPGEPASISCQASESLVHSNRNTYLHWYLQKPGQSPQLLIYKVSNRFSGVPDRFSGSGSGTDFTLKISRVEAEDVGVYYCSQNTHVPPTFGQGTKVEIERTVAAPSVFIFPPSDEQLKSGTASVVCLLNNFYPREAKVQWKVDNALQSGNSQESVTEQDSKDSTYSLSSTLTLSKADYEKHKVYACEVTHQGLSSPVTKSFNRGEC	274 % of control	–
GpH7-A5/GpH7-B3 variant L328_03V/GpL16-k0 (He Ab) (antibody, human IgG1, kappa, Substitution in one H chain only; position in EU numbering; also called L328V heterodimerized antibody) heavy 1: not shown heavy 2: not shown light: DIVMTQSPLSLPVTPGEPASISCQASESLVHSNRNTYLHWYLQKPGQSPQLLIYKVSNRFSGVPDRFSGSGSGTDFTLKISRVEAEDVGVYYCSQNTHVPPTFGQGTKVEIERTVAAPSVFIFPPSDEQLKSGTASVVCLLNNFYPREAKVQWKVDNALQSGNSQESVTEQDSKDSTYSLSSTLTLSKADYEKHKVYACEVTHQGLSSPVTKSFNRGEC	–	126 % of control
GpH7-A5/GpH7-B3 variant K334_15Y/GpL16-k0 (He Ab) (antibody, human IgG1, kappa, Substitution in one H chain only; position in EU numbering; also called K334Y heterodimerized antibody) heavy 1: not shown heavy 2: not shown light: DIVMTQSPLSLPVTPGEPASISCQASESLVHSNRNTYLHWYLQKPGQSPQLLIYKVSNRFSGVPDRFSGSGSGTDFTLKISRVEAEDVGVYYCSQNTHVPPTFGQGTKVEIERTVAAPSVFIFPPSDEQLKSGTASVVCLLNNFYPREAKVQWKVDNALQSGNSQESVTEQDSKDSTYSLSSTLTLSKADYEKHKVYACEVTHQGLSSPVTKSFNRGEC	–	109 % of control
GpH7-B3 variant S267_08L/GpL16-k0 (Ho Ab) (antibody, human IgG1, kappa, Substitution in both H chains; position in EU numbering; also called S267L homodimerized antibody) heavy: not shown light: DIVMTQSPLSLPVTPGEPASISCQASESLVHSNRNTYLHWYLQKPGQSPQLLIYKVSNRFSGVPDRFSGSGSGTDFTLKISRVEAEDVGVYYCSQNTHVPPTFGQGTKVEIERTVAAPSVFIFPPSDEQLKSGTASVVCLLNNFYPREAKVQWKVDNALQSGNSQESVTEQDSKDSTYSLSSTLTLSKADYEKHKVYACEVTHQGLSSPVTKSFNRGEC	109 % of control	–
GpH7-A5/GpH7-B3 variant K334_19Q/GpL16-k0 (He Ab) (antibody, human IgG1, kappa, Substitution in one H chain only; position in EU numbering; also called K334Q heterodimerized antibody) heavy 1: not shown heavy 2: not shown light: DIVMTQSPLSLPVTPGEPASISCQASESLVHSNRNTYLHWYLQKPGQSPQLLIYKVSNRFSGVPDRFSGSGSGTDFTLKISRVEAEDVGVYYCSQNTHVPPTFGQGTKVEIERTVAAPSVFIFPPSDEQLKSGTASVVCLLNNFYPREAKVQWKVDNALQSGNSQESVTEQDSKDSTYSLSSTLTLSKADYEKHKVYACEVTHQGLSSPVTKSFNRGEC	–	109 % of control
GpH7-A5/GpH7-B3 variant K334_16H/GpL16-k0 (He Ab) (antibody, human IgG1, kappa, Substitution in one H chain only; position in EU numbering; also called K334H heterodimerized antibody) heavy 1: not shown heavy 2: not shown light: DIVMTQSPLSLPVTPGEPASISCQASESLVHSNRNTYLHWYLQKPGQSPQLLIYKVSNRFSGVPDRFSGSGSGTDFTLKISRVEAEDVGVYYCSQNTHVPPTFGQGTKVEIERTVAAPSVFIFPPSDEQLKSGTASVVCLLNNFYPREAKVQWKVDNALQSGNSQESVTEQDSKDSTYSLSSTLTLSKADYEKHKVYACEVTHQGLSSPVTKSFNRGEC	–	113 % of control
GpH7-B3 variant T335_08L/GpL16-k0 (Ho Ab) (antibody, human IgG1, kappa, Substitution in both H chains; position in EU numbering; also called T335L homodimerized antibody) heavy: not shown light: DIVMTQSPLSLPVTPGEPASISCQASESLVHSNRNTYLHWYLQKPGQSPQLLIYKVSNRFSGVPDRFSGSGSGTDFTLKISRVEAEDVGVYYCSQNTHVPPTFGQGTKVEIERTVAAPSVFIFPPSDEQLKSGTASVVCLLNNFYPREAKVQWKVDNALQSGNSQESVTEQDSKDSTYSLSSTLTLSKADYEKHKVYACEVTHQGLSSPVTKSFNRGEC	106 % of control	–
GpH7-B3 variant S337_09D/GpL16-k0 (Ho Ab) (antibody, human IgG1, kappa, Substitution in both H chains; position in EU numbering; also called S337D homodimerized antibody) heavy: not shown light: DIVMTQSPLSLPVTPGEPASISCQASESLVHSNRNTYLHWYLQKPGQSPQLLIYKVSNRFSGVPDRFSGSGSGTDFTLKISRVEAEDVGVYYCSQNTHVPPTFGQGTKVEIERTVAAPSVFIFPPSDEQLKSGTASVVCLLNNFYPREAKVQWKVDNALQSGNSQESVTEQDSKDSTYSLSSTLTLSKADYEKHKVYACEVTHQGLSSPVTKSFNRGEC	116 % of control	–
GpH7-B3 variant T335_04F/GpL16-k0 (Ho Ab) (antibody, human IgG1, kappa, Substitution in both H chains; position in EU numbering; also called T335F homodimerized antibody) heavy: not shown light: DIVMTQSPLSLPVTPGEPASISCQASESLVHSNRNTYLHWYLQKPGQSPQLLIYKVSNRFSGVPDRFSGSGSGTDFTLKISRVEAEDVGVYYCSQNTHVPPTFGQGTKVEIERTVAAPSVFIFPPSDEQLKSGTASVVCLLNNFYPREAKVQWKVDNALQSGNSQESVTEQDSKDSTYSLSSTLTLSKADYEKHKVYACEVTHQGLSSPVTKSFNRGEC	107 % of control	–
GpH7-B3 variant S298_08L/GpL16-k0 (Ho Ab) (antibody, human IgG1, kappa, Substitution in both H chains; position in EU numbering; also called S298L homodimerized antibody) heavy: not shown light: DIVMTQSPLSLPVTPGEPASISCQASESLVHSNRNTYLHWYLQKPGQSPQLLIYKVSNRFSGVPDRFSGSGSGTDFTLKISRVEAEDVGVYYCSQNTHVPPTFGQGTKVEIERTVAAPSVFIFPPSDEQLKSGTASVVCLLNNFYPREAKVQWKVDNALQSGNSQESVTEQDSKDSTYSLSSTLTLSKADYEKHKVYACEVTHQGLSSPVTKSFNRGEC	115 % of control	–

— US20180155451A1 (published 2018)
